Laboratory results from patent US20170087188A1, “WNT INDUCED MOTILITY AND ENHANCED ENGRAFTMENT OF CELLS” (OTTAWA HOSPITAL RESEARCH INSTITUTE, priority 2014, published 2017).
Entries after “also recorded” stand apart in the source; their conditions may differ.

B1: Wnt3a: unrelated canonical Wnt protein (R&D Systems) used as comparison (protein, UniProt P56704 19-352, looked up)
Protein Wnt-3a: SYPIWWSLAVGPQYSSLGSQPILCASIPGLVPKQLRFCRNYVEIMPSVAEGIKIGIQECQHQFRGRRWNCTTVHDSLAIFGPVLDKATRESAFVHAIASAGVAFAVTRSCAEGTAAICGCSSRHQGSPGKGWKWGGCSEDIEFGGMVSREFADARENRPDARSAMNRHNNEAGRQAIASHMHLKCKCHGLSGSCEVKTCWWSQPDFRAIGDFLKDKYDSASEMVVEKHRESRGWVETLRPRYTYFKVPTERDLVYYEASPNFCEPNPETGSFGTRDRTCNVSSHGIDGCDLLCCGRGHNARAERRREKCRCVFHWCCYVSCQECTRVYDVHTCK
B2: Wnt5a: Wnt protein (R&D Systems) used as comparison in myoblast transplantation (protein, UniProt P41221 62-380, looked up)
Protein Wnt-5a: IIGAQPLCSQLAGLSQGQKKLCHLYQDHMQYIGEGAKTGIKECQYQFRHRRWNCSTVDNTSVFGRVMQIGSRETAFTYAVSAAGVVNAMSRACREGELSTCGCSRAARPKDLPRDWLWGGCGDNIDYGYRFAKEFVDARERERIHAKGSYESARILMNLHNNEAGRRTVYNLADVACKCHGVSGSCSLKTCWLQLADFRKVGDALKEKYDSAAAMRLNSRGKLVQVNSRFNSPTTQDLVYIDPSPDYCVRNESTGSLGTQGRLCNKTSEGMDGCELMCCGRGYDQFKTVQTERCHCKFHWCCYVKCKKCTEIVDQFVCK

How the values were obtained:
mdx mice = test: Transplantation of Wnt-treated mouse primary myoblasts into mdx mice; assay type: in vivo; conditions: treated zsGreen+ myoblasts; three weeks following transplantation; compared to Veh.
Protocol: In a clinical setting, freshly isolated satellite cells are often not readily available. Therefore, the effect of 3 h Wnt7a loading on cultured primary mouse myoblasts that were subsequently transplanted into injured muscles of immunosuppressed mdx mice (FIG. S5 A) was examined. After transplantation of 100,000 cells, the number of dystrophin-expressing myofibers was increased by 72% in muscles that were injected with Wnt7a treated myoblasts (FIG. 13B). […] In addition, the mean maximal cluster distance (dispersion) increased from 1.5 mm for Veh., to 2.0 mm for Wnt7a (FIG. 13D).
Transplantation of zsGreen-expressing satellite cells or myoblasts into mdx mice was performed as previously described (Bentzinger et al., 2013c). Before transplantation the cells were treated for 3 h with Wnt7a, Wnt5a, or Wnt3a (R&D Systems) at a concentration of 50 ng/mL for freshly isolated satellite cells or with 100 ng/mL for cultured cells. Myoblasts expressing tdTomato were transplanted into uninjured muscles of C57BL/6 mice that were implanted with an osmotic pump (Alzet) delivering FK506 (Sigma) at 2.5 mg/kg/day 3 days prior to the transplantations. In some experiments, the injection site was marked with blue fluorescent microspheres (2 μm, Life Technologies) that were added at a concentration of 1:100 (vol/vol) to the cell suspension. 10 μl of the cell-microsphere suspension was injected into the TA of each mouse using a Hamilton syringe.
Muscles frozen in liquid nitrogen were cut into 12 μm cross-sections. Cross-sections and cells were either fixed with ethanol (100%) or 2% PFA for 5 min, permeabilized with 0.1% Triton/0.1 M glycine/PBS for 10 min, blocked with 5% horse serum in PBS for several hours, and incubated with specific primary antibody in blocking buffer overnight at 4° C. Samples were subsequently washed with PBS and stained with appropriate fluorescently labeled secondary antibodies for 1 h at room temperature. After washing with PBS, samples were mounted with Permafluor (Fisher). Antibodies were as follows: chicken anti-GFP (Abcam, ab13970), mouse anti-Pax7 (DSHB), mouse anti-Dystrophin (7A10, DSHB), mouse anti-Rac1 (05-389, Millipore), mouse anti-Tubulin (Sigma, T9026), rabbit anti-Dvl2 (3224, Cell Signaling), rabbit anti-zsGreen (Clontech, 632474), rabbit anti-Laminin (Sigma, L9393), rabbit anti-HA (Millipore, 07-221).

primary myoblasts = test: Proliferation of primary myoblasts over five days; assay type: cell-based; conditions: 3 h exposure; various concentrations; over 5 days
Protocol: The proliferation of primary myoblasts following a 3 h exposure to various concentrations of Wnt7a was analyzed to control for the effect being due to changes in the cell cycle status of the transplanted cells.

mouse primary myoblasts = test: Scratch migration assay, mouse primary myoblasts; assay type: cell-based
Protocol: Cellular polarization is indicative of increased motility (de Forges et al., 2012). Scratch assays were used to test whether Wnt7a and Fzd7 polarization affect cell motility. To exclude effects on the localization of cells arising from altered rates of proliferation, cells were treated with Mitomycin-C.
Fzd7 deficient cells migrated 59% less compared to heterozygous myoblasts and expression of Fzd7-Flag in Fzd7 knockout myoblasts restored migration to normal levels (FIG. 2D). […] To investigate whether the stimulation of myoblast migration is dose dependent, different concentrations of Wnt7a and Wnt3a were tested for their effect on migration.
Following plasmid transfection or application of Wnts (R&D Systems), the cells were treated with Mitomycin-C for 2 h (50 μg/mL). Subsequently, the monolayer of cells was scraped in a straight line. The plates were then extensively washed with culture medium and incubated for 24 h before analysis. Analysis was performed using DAPI staining after matching the reference points and enumeration of DAPI-stained nuclei in the scar was performed. Unless otherwise indicated, Wnt7a and Wnt3a were used at a concentration of 100 ng/mL in scratch assays. Monodansylcadaverine (MDC, 30432, Sigma) was used in scratch assays at a concentration of 50 μm.

β-catenin signaling = test: TOP-flash luciferase reporter assay in C2C12 cells; assay type: cell-based; conditions: different concentrations
Protocol: Different concentrations of Wnt7a were tested to exclude a dose dependent effect on β-catenin signaling, as measured by induction of TOP-flash activity in C2C12 cells.
The UBC-Fzd7-Flag (Fzd7-Flag), CMV-Fzd7-EYFP (Fzd7-YFP), CMV-Fzd3-EYFP (Fzd3-YFP), CMV-EYFP (YFP), CMV-EGFP-Rac1-wt (GFP-Rac1, 12980, Addgene), CMV-EGFP-Rac1-T17N (Rac1-DN, 12982, Addgene), CMV-EGFP-RhoA-T19N (RhoA-DN, 12967, Addgene) and CMV-EGFP-Cdc42-T17N (Cdc42-DN, 12976, Addgene) constructs have been described previously (Bentzinger et al., 2013a; Subauste et al., 2000; von Maltzahn et al., 2011). The Fzd7-tdtomato plasmid was generated by replacing the C-terminal YFP in Fzd7-YFP with tdTomato. For TOP-flash and FOP-flash the TCF reporter plasmid kit (17-285, Millipore) was used with the dual-luciferase reporter assay system (E1960, Promega). For normalization pGL4.74[hRluc/TK] (E6921, Promega) was cotransfected. For TOP-flash and FOP-flash assays the cells were transfected with GenJet lipofection reagent (SL100499, SignaGen). Otherwise, Lipofectamine 2000 (11668019, Life Technologies) was used for transfections.

Molecule	mean maximal cluster distance (mdx mice)	number of dystrophin-expressing myofibers (mdx mice)	rate of proliferation of primary myoblasts (primary myoblasts)	dose dependency of myoblast migration (mouse primary myoblasts; different concentrations tested, mouse primary myoblasts)	stimulation of cell migration (mouse primary myoblasts; primary mouse myoblasts, 100 ng/mL)	TOP-flash reporter activity (β-catenin signaling)
B1	no difference; also recorded: Neither the number of dystrophin-expressing myofibers (FIG. 13E) nor the mean maximal cluster distance (FIG. 13F) was changed	no difference; also recorded: Neither the number of dystrophin-expressing myofibers (FIG. 13E) nor the mean maximal cluster distance (FIG. 13F) was changed	reduced the proliferation of primary myoblasts	no significant effect at any concentration tested	does not affect cell migration; also recorded: did not stimulate cell migration	dose dependent increase; also recorded: dose dependent response
B2	no difference; also recorded: Neither the number of dystrophin-expressing myofibers (FIG. 13E) nor the mean maximal cluster distance (FIG. 13F) was changed	no difference; also recorded: Neither the number of dystrophin-expressing myofibers (FIG. 13E) nor the mean maximal cluster distance (FIG. 13F) was changed				
